This note sets out measurements from US7354734B2, “Fungal proteins and nucleic acids encoding same” (priority 2003, dated 2008).

Assay [1] concerns the target ruLAP1 (Trichophyton rubrum, UniProt Q5QHG5). It counts as biochemical.
The target of assay [2] is T1, pkLAP (microsomal LAP from porcine kidney) (Sus scrofa, UniProt P15145).
T1 construct: purchased Sigma; host or cells: porcine kidney
T1 sequence (P15145 1-963): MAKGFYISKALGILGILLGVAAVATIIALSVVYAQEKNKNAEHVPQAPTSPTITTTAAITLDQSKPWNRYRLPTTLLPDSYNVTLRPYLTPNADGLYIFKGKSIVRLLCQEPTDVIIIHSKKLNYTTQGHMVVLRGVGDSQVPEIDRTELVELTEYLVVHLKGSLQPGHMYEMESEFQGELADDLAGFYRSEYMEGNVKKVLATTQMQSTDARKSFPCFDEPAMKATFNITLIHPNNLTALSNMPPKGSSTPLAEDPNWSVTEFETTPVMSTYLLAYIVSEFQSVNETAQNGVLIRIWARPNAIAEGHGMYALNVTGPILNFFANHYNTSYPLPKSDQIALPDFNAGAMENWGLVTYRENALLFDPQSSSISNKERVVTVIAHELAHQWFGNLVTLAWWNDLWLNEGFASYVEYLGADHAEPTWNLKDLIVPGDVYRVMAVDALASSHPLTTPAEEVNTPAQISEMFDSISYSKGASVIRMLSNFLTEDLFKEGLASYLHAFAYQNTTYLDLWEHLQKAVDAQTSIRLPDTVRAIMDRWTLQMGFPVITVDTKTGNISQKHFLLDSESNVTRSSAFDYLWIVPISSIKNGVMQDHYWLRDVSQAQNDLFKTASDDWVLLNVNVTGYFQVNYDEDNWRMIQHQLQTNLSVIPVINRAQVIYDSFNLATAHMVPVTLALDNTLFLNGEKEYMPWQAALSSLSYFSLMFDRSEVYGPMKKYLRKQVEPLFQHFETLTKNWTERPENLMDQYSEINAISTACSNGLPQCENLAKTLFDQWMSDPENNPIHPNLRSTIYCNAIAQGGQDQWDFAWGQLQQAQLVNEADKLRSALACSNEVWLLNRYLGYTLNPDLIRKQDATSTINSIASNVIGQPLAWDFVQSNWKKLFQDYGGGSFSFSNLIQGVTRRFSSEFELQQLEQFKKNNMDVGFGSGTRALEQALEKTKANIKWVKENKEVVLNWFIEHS
Nature of the assay: Effect of inhibitors and metallic cations on LAP activity (Leu-AMC). It counts as biochemical. To be noted: for effect of inhibitor on pkLAP activity: Leu-AMC 5 mM.

In assay [3] the target is fuLAP1 (Aspergillus fumigatus, UniProt Q5VJG6). Nature of the assay: biochemical. The format is biochemical. To be noted: for effect of inhibitor on fuLAP1 activity: Leu-AMC 5 mM.
For assay [4], the system named is fuLAP2. The format is biochemical, Aspergillus fumigatus. To be noted: for effect of inhibitor on fuLAP2 activity: Leu-AMC 5 mM.
Assay [5] deals with T. rubrum secreted proteolytic activity. Description: Inhibition of T. rubrum secreted proteolytic activity (resorufin-labeled casein). The format is biochemical, Trichophyton rubrum. To be noted: T. rubrum culture medium, resorufin-labeled casein as substrate. Here is the method: The proteolytic activity was measured using resorufin-labeled casein in phosphate buffer (20 mM; pH 7.4). The reaction mixture contained 0.02% substrate in a total volume of 0.5 ml. After incubation at 37° C., the undigested substrate was precipitated by trichloroacetic add (4% final concentration) and separated from the supernatant by centrifugation. The absorbance at 574 nm of the supernatant was measured after alkalinization by adding 500 μl Tris buffer (500 mM; pH 9.4). For practical purposes, one unit (U) of proteolytic activity was defined as that producing an absorbance of 0.001 per min.
T. rubrum was grown at 30° C. in a medium containing 0.2% soy protein as a sole carbon and nitrogen source. After 14 days of growth, a concomitant clarification of the culture medium was noted and a substantial proteolytic activity (400 U ml^−1) detected using resorufin-labeled casein as substrate. This proteolytic activity was 15% and 85% inhibited by PMSF and ortho-phenanthroline, respectively, attesting that serine and metalloproteases were secreted by T. rubrum. […] In addition, a high activity on substrates such as Leu-AMC and Leu-pNA was detected in the T. rubrum culture supernatant.

The target in assay [6] is ruLAP2 (Trichophyton rubrum, UniProt Q5QHG6). It counts as biochemical. To be noted: for effect of inhibitor on ruLAP2 activity: Leu-AMC 5 mM.
Assay [7] deals with gliadin 14mer PQPQLPYPQPQLPY (fragment 82-95 of α/β gliadin AIV). It counts as biochemical, wheat. To be noted: 4 h, 37° C.
The test system of assay [8] is gliadin 33mer (fragment 57-89 of gliadin MM1). Nature of the assay: Digestion of gliadin 33mer (RP-HPLC, ESI-MS). The format is biochemical, wheat. To be noted: 37° C.
The format of assay [9] is biochemical. To be noted: substrate Lys(Abz)Pro-PropNA 5 mM, 37° C., 60 min.
Assay [10] is classed as biochemical.
Where [11] appears, read: inhibitor 40 μM, Leu-MCA substrate, 15 min pre-incubation.

“Also recorded” adds a separate entry of the source. Read-outs that look alike come from different tables or passages of the source.

Sequence of ruLAP1 (Q5QHG5 21-373): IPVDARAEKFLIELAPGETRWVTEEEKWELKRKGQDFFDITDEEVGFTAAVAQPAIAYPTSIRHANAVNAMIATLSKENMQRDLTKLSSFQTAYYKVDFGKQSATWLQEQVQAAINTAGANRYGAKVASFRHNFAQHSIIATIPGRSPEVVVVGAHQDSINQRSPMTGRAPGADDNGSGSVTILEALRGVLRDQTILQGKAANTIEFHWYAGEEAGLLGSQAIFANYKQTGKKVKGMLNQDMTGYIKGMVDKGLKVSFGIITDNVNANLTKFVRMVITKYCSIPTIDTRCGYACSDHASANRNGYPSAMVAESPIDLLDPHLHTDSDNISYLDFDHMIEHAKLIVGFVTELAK
Sequence of ruLAP2 (Q5QHG6 20-495): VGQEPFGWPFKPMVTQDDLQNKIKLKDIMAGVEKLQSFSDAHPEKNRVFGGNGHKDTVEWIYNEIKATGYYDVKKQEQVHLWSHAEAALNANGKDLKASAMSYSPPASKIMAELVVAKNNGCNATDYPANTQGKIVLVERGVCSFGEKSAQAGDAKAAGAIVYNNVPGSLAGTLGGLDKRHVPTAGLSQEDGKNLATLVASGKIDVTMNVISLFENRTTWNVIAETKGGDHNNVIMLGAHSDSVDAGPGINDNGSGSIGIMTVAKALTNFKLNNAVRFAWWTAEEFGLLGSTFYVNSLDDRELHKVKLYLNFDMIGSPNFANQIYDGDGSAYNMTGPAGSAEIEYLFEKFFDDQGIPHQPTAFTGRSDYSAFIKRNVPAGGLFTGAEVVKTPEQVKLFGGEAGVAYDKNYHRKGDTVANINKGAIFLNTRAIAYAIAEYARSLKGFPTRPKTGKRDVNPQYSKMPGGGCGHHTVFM
Sequence of fuLAP1 (Q5VJG6 16-388): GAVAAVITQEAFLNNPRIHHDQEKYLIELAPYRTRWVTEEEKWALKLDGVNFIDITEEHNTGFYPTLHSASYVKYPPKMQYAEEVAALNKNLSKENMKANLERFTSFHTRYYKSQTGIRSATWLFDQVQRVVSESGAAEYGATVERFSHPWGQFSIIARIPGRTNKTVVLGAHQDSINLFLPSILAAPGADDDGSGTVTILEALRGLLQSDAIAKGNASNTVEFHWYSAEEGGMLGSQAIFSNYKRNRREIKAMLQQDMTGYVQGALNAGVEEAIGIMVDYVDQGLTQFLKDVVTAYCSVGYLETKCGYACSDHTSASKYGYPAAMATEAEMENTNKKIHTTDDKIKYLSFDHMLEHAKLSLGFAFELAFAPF

For `O=S(=O)(F)Cc1ccccc1` [PMSF], the “effect of inhibitor on ruLAP1 activity” value in [1] is reported as “no clear inhibitory effects”. In addition, the “ruLAP1 activity as percentage of control reaction without inhibitor” value in assay [1] (40 µM) was 78%. Moreover, the “effect of inhibitor on pkLAP activity” value in [2] is reported as “no clear inhibitory effects”. The “pkLAP activity as percentage of control reaction without inhibitor” value in assay [2] (setting [11]) is given as 58%. For the same molecule, in assay [3], the “effect of inhibitor on fuLAP1 activity” value was “no clear inhibitory effects”. Also, the “fuLAP1 activity as percentage of control reaction without inhibitor” value in [3] (setting [11]) is 156%. Moreover, the “effect of inhibitor on fuLAP2 activity” value in assay [4] is listed as “no clear inhibitory effects”. The “fuLAP2 activity as percentage of control reaction without inhibitor” value in assay [4] (setting [11]) was 84%. Moreover, in [5], the “inhibition of proteolytic activity” value is on record as 15%. Moreover, the “effect of inhibitor on ruLAP2 activity” value in assay [6] was “no clear inhibitory effects”. Also, the “ruLAP2 activity as percentage of control reaction without inhibitor” value in assay [6] (setting [11]) was 79%.

In the case of `c1cnc2c(c1)ccc1cccnc12` [ortho-phenantroline, ortho-phenanthroline], the “effect of inhibitor on ruLAP1 activity” value in [1] (Leu-AMC 5 mM) is “totally inhibited”. For the same molecule, the “effect of inhibitor on pkLAP activity” value in [2] is given as “totally inhibited”. Further, the “effect of inhibitor on fuLAP1 activity” value in assay [3] is listed as “totally inhibited”. The “effect of inhibitor on fuLAP2 activity” value in assay [4] is reported as “totally inhibited”. Further, in assay [5], the “inhibition of proteolytic activity” value stood at 85%. The “effect of inhibitor on ruLAP2 activity” value in assay [6] was “totally inhibited”.

For “ruDPPIV: T. rubrum dipeptidylpeptidase IV (SEQ ID NO: 35)”, the “digestion of gliadin 14mer, enzyme alone” value in assay [7] is on record as “not able to hydrolyse”. Besides, the “digestion of gliadin 33mer, enzyme alone” value in assay [8] is reported as “not a substrate”.

B1: pkLAP: commercially available microsomal LAP from porcine kidney (MEROPS>M1 family), Sigma (protein, UniProt P15145 2-963, looked up)
Aminopeptidase N: AKGFYISKALGILGILLGVAAVATIIALSVVYAQEKNKNAEHVPQAPTSPTITTTAAITLDQSKPWNRYRLPTTLLPDSYNVTLRPYLTPNADGLYIFKGKSIVRLLCQEPTDVIIIHSKKLNYTTQGHMVVLRGVGDSQVPEIDRTELVELTEYLVVHLKGSLQPGHMYEMESEFQGELADDLAGFYRSEYMEGNVKKVLATTQMQSTDARKSFPCFDEPAMKATFNITLIHPNNLTALSNMPPKGSSTPLAEDPNWSVTEFETTPVMSTYLLAYIVSEFQSVNETAQNGVLIRIWARPNAIAEGHGMYALNVTGPILNFFANHYNTSYPLPKSDQIALPDFNAGAMENWGLVTYRENALLFDPQSSSISNKERVVTVIAHELAHQWFGNLVTLAWWNDLWLNEGFASYVEYLGADHAEPTWNLKDLIVPGDVYRVMAVDALASSHPLTTPAEEVNTPAQISEMFDSISYSKGASVIRMLSNFLTEDLFKEGLASYLHAFAYQNTTYLDLWEHLQKAVDAQTSIRLPDTVRAIMDRWTLQMGFPVITVDTKTGNISQKHFLLDSESNVTRSSAFDYLWIVPISSIKNGVMQDHYWLRDVSQAQNDLFKTASDDWVLLNVNVTGYFQVNYDEDNWRMIQHQLQTNLSVIPVINRAQVIYDSFNLATAHMVPVTLALDNTLFLNGEKEYMPWQAALSSLSYFSLMFDRSEVYGPMKKYLRKQVEPLFQHFETLTKNWTERPENLMDQYSEINAISTACSNGLPQCENLAKTLFDQWMSDPENNPIHPNLRSTIYCNAIAQGGQDQWDFAWGQLQQAQLVNEADKLRSALACSNEVWLLNRYLGYTLNPDLIRKQDATSTINSIASNVIGQPLAWDFVQSNWKKLFQDYGGGSFSFSNLIQGVTRRFSSEFELQQLEQFKKNNMDVGFGSGTRALEQALEKTKANIKWVKENKEVVLNWFIEHS
As to B1, the “hydrolytic activity toward Lys(Abz)Pro-PropNA in comparison to Leu-MCA used as a standard” value in [9] came out at 0.0%. In assay [10] (compared to Leu-AMC), the “hydrolytic activity toward Ala-AMC” value is given as “extremely high efficiency” and the “hydrolytic activity toward Arg-AMC” value is reported as “extremely high efficiency”. The “hydrolytic activity toward Ala-AMC in comparison to Leu-MCA used as a standard” value in assay [10] (substrate Ala-AMC 5 mM, 37° C., 60 min) was 584.7%. In [10] (substrate Arg-AMC 5 mM, 37° C., 60 min), the “hydrolytic activity toward Arg-AMC in comparison to Leu-MCA used as a standard” value is reported as 174.8%. For the same molecule, the “hydrolytic activity toward Asn-AMC in comparison to Leu-MCA used as a standard” value in assay [10] (substrate Asn-AMC 5 mM, 37° C., 60 min) was 33.9%. Besides, in assay [10] (substrate Asp-AMC 5 mM, 37° C., 60 min), the “hydrolytic activity toward Asp-AMC in comparison to Leu-MCA used as a standard” value is 0.9%. For the same molecule, in [10] (substrate Cys-AMC 5 mM, 37° C., 60 min), the “hydrolytic activity toward Cys-AMC in comparison to Leu-MCA used as a standard” value is recorded as 35.5%. For the same molecule, the “hydrolytic activity toward Gln-AMC in comparison to Leu-MCA used as a standard” value in assay [10] (substrate Gln-AMC 5 mM, 37° C., 60 min) came to 50.7%. For the same molecule, in assay [10] (substrate Glu-AMC 5 mM, 37° C., 60 min), the “hydrolytic activity toward Glu-AMC in comparison to Leu-MCA used as a standard” value came to 4.7%. Besides, the “hydrolytic activity toward Gly-AMC in comparison to Leu-MCA used as a standard” value in assay [10] (substrate Gly-AMC 5 mM, 37° C., 60 min) is listed as 74.8%. The “hydrolytic activity toward Gly-Pro-AMC in comparison to Leu-MCA used as a standard” value in assay [10] (substrate Gly-Pro-AMC 5 mM, 37° C., 60 min) is recorded as 16.7%. Further, the “hydrolytic activity toward His-AMC in comparison to Leu-MCA used as a standard” value in assay [10] (substrate His-AMC 5 mM, 37° C., 60 min) came to 17.6%. Also, in [10] (substrate Hyp-AMC 5 mM, 37° C., 60 min), the “hydrolytic activity toward Hyp-AMC in comparison to Leu-MCA used as a standard” value turned out to be 1.7%. Moreover, in assay [10] (substrate Ile-AMC 5 mM, 37° C., 60 min), the “hydrolytic activity toward Ile-AMC in comparison to Leu-MCA used as a standard” value came out at 6.3%. In addition, the “hydrolysis of Leu-AMC” value in assay [10] (substrate Leu-AMC) is given as “efficiently hydrolyzed; also recorded: common preference”. In addition, the “hydrolytic activity toward Leu-AMC in comparison to Leu-MCA used as a standard” value in assay [10] (substrate Leu-AMC 5 mM, 37° C., 60 min) turned out to be 100.0%. In addition, in [10] (substrate Lys-AMC 5 mM, 37° C., 60 min), the “hydrolytic activity toward Lys-AMC in comparison to Leu-MCA used as a standard” value turned out to be 70.1%. The “hydrolytic activity toward Met-AMC in comparison to Leu-MCA used as a standard” value in assay [10] (substrate Met-AMC 5 mM, 37° C., 60 min) was 46.1%. For the same molecule, the “hydrolytic activity toward Phe-AMC in comparison to Leu-MCA used as a standard” value in [10] (substrate Phe-AMC 5 mM, 37° C., 60 min) is 184.4%. For the same molecule, the “hydrolytic activity toward Pro-AMC in comparison to Leu-MCA used as a standard” value in [10] (substrate Pro-AMC 5 mM, 37° C., 60 min) is given as 7.9%. Also, in assay [10] (substrate Pyr-AMC 5 mM, 37° C., 60 min), the “hydrolytic activity toward Pyr-AMC in comparison to Leu-MCA used as a standard” value was 0.0%. Further, the “hydrolytic activity toward Ser-AMC in comparison to Leu-MCA used as a standard” value in assay [10] (substrate Ser-AMC 5 mM, 37° C., 60 min) is 24.6%. The “hydrolytic activity toward Thr-AMC in comparison to Leu-MCA used as a standard” value in assay [10] (substrate Thr-AMC 5 mM, 37° C., 60 min) is recorded as 4.4%. Besides, the “hydrolytic activity toward Val-AMC in comparison to Leu-MCA used as a standard” value in [10] (substrate Val-AMC 5 mM, 37° C., 60 min) came out at 4.0%. For the same molecule, the “digestion of gliadin 33mer, enzyme alone” value in assay [8] was “partial deletion of N-terminal Leu and C-terminal Phe”. In addition, the “digestion of gliadin 33mer, mixed with ruDPPIV” value in assay [8] (enzyme plus ruDPPIV (DPPIV)) was “does not modify the profile”.
